The values below are quoted from earlier work in PMC10970614.

The target of data set [1] is glycophorin (Homo sapiens) (UniProt P02724).
Data set [2] deals with integrin beta 2 cytoplasmic domain (Homo sapiens) (UniProt P05107). Kind of data set: SPR. On the technique in general: In SPR one partner is held on a chip, and binding of the other changes the refractive index at the surface.
The target of data set [3] is integrin alpha X cytoplasmic domain (Homo sapiens) (UniProt P20702). Put plainly: SPR.
The target in data set [4] is integrin beta 3 cytoplasmic domain (Homo sapiens) (UniProt P05106). Kind of data set: SPR.
For data set [5], the target named is integrin alpha M cytoplasmic domain (Homo sapiens) (UniProt P11215). Put plainly: SPR.
Data set [6] has as its target integrin alpha L cytoplasmic domain (Homo sapiens) (UniProt P20701). Put plainly: SPR.

Chain of LtxA (P16462 whole entry): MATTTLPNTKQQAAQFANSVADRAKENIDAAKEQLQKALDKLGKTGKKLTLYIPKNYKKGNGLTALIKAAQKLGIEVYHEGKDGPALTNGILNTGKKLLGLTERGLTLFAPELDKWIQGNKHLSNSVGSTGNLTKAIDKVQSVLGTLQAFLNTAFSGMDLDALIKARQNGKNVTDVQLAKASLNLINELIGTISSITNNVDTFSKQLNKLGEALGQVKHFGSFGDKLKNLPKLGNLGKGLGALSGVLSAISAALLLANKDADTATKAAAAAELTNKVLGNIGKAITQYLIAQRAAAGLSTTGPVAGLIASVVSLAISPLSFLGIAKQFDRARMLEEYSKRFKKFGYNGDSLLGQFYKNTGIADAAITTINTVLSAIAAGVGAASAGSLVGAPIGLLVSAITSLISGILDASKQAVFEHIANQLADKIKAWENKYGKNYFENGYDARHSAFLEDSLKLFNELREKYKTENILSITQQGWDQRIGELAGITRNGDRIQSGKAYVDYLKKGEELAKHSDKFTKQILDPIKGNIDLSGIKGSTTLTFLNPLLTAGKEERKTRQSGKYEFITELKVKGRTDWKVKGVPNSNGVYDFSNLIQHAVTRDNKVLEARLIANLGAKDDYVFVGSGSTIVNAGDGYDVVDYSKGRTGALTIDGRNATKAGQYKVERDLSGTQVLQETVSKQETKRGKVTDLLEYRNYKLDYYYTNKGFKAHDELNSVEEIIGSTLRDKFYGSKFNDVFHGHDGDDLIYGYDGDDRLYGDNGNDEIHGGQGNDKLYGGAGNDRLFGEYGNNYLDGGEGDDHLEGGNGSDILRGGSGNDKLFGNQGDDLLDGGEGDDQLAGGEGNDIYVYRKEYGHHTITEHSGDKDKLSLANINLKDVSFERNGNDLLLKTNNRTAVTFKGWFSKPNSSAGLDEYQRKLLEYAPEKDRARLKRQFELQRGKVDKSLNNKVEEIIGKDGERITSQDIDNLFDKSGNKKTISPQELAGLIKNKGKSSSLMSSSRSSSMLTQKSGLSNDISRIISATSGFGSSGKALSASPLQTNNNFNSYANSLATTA
Chain of HlyA (P08715 whole entry): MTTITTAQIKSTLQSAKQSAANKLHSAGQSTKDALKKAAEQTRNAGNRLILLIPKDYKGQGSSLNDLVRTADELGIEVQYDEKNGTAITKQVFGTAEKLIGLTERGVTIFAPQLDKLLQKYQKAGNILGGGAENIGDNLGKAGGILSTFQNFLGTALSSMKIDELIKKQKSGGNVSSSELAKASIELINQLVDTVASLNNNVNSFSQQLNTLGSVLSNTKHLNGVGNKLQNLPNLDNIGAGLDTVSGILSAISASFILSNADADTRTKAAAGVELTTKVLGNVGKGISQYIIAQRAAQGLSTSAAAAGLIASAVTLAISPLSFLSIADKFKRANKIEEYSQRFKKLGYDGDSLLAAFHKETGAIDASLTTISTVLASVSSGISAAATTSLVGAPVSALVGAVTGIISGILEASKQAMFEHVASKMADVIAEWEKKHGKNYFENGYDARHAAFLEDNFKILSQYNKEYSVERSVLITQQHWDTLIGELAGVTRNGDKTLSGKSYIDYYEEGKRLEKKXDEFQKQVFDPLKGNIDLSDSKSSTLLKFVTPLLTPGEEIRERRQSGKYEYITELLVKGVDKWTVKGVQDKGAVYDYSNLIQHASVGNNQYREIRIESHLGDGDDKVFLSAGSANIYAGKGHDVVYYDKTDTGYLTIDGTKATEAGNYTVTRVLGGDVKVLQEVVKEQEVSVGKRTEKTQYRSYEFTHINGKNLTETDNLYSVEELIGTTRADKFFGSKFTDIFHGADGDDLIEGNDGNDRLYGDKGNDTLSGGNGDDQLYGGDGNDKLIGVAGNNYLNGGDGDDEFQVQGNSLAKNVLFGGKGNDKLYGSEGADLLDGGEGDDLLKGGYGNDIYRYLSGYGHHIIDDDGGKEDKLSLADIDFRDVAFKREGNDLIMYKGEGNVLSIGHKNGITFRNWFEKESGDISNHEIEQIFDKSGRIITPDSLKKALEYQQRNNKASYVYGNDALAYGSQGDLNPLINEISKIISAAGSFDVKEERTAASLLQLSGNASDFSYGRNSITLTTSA
Chain of integrin beta 3 cytoplasmic domain (Homo sapiens) (P05106 742-788): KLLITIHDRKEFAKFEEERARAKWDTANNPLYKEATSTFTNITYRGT
Chain of integrin beta 2 cytoplasmic domain (Homo sapiens) (P05107 724-769): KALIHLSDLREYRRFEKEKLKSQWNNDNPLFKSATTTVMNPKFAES
Chain of integrin alpha X cytoplasmic domain (Homo sapiens) (P20702 1129-1163): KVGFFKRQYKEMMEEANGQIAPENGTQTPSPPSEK
Chain of integrin alpha M cytoplasmic domain (Homo sapiens) (P11215 1129-1152): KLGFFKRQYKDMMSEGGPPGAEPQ
Chain of integrin alpha L cytoplasmic domain (Homo sapiens) (P20701 1112-1170): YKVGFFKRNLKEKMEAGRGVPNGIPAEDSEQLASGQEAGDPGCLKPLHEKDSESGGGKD

HlyA (from UniProt P08715): in data set [1], the Kd is 610 nM.
For the substance LtxA (from UniProt P16462), the Kd was 4.2 nM in data set [2]; 180 nM in data set [3]; 230 nM in data set [4]; 400 nM in data set [5]; 15 nM in data set [6].

The term Kd denotes the equilibrium constant for the complex coming apart.
